Laboratory results published in PMC12363161.

Target: SDDV major capsid protein, Flag-tagged (pFlag-N3-SDDV MCP) (scale drop disease virus (SDDV))

For ADLFRNQFALATWTIQGCANSLAGDIWSL [TM-B polypeptide containing the binding site with SDDV-MCP in mfTfR1], the mortality of mandarin fish challenged with SDDV pre-incubated with TM-B, against the petB2M control (blocks m2 with m8) was 40%.
